Consider five molecules from US20230407373A1 (priority 2020, published 2023).

What all share (assay type): binding
The subject of assay [1] is SARS-CoV-2 gRNA. The settings on record: […]; LC-MS/MS; Probe I sample (first 199 lines of Table 2).
For assay [2], the system named is gRNA of HCoV-OC43. As to conditions: for target (spectral count) / background (spectral count): type g_36_m, 36 hpi, Probe I; for target (spectral count): HCoV-OC43-infected HCT-8 cells; for background (spectral count): uninfected-probe control; for target (spectral count, OC43 Probe I RNP capture) / background (spectral count, no-probe control): type n_48_v: 48 hours post-infection; for target (spectral count, OC43 Probe I RNP capture): infected cells, unweighted spectral count; for background (spectral count, no-probe control): no-probe control on infected cells.

For assay [3], the system named is HCoV-OC43 gRNA and sgRNA. As to conditions: for target (unweighted spectral count, OC43 Probe II capture) / target (unweighted spectral count): tested against no-probe control; for target (unweighted spectral count, OC43 Probe II capture): FDR<10%; for target (unweighted spectral count): OC43 Probe II, infected cells; for target (unweighted spectral count, OC43 Probe II) / background (unweighted spectral count, no-probe control): type n_48_v, 48 hpi; for target (unweighted spectral count, OC43 Probe II): OC43 Probe II capture on infected cells; for background (unweighted spectral count, no-probe control): no-probe control on infected cells.

Assay [4] concerns SARS-CoV-2 gRNA and sgRNAs. The settings on record: for target (unweighted spectral count of the protein in the RNP capture experiment): LC-MS/MS label-free quantification, probe pool not given; for back-ground (unweighted spectral count of the protein in the control experiment): protein background of the control (e.g. no-probe) experiment; for target (unweighted spectral count in RNP capture): Probe II capture, LC-MS/MS LFQ; for background (unweighted spectral count in control): no-probe control pull-down, used as background for Probe II.

Like-named read-outs stand apart in the source and are kept apart here.

B1: HNRNPUL2: host protein, UniProt Q1KMD3 (protein, UniProt Q1KMD3 1-747, looked up)
Heterogeneous nuclear …: MEVKRLKVTELRSELQRRGLDSRGLKVDLAQRLQEALDAEMLEDEAGGGGAGPGGACKAEPRPVAASGGGPGGDEEEDEEEEEEDEEALLEDEDEEPPPAQALGQAAQPPPEPPEAAAMEAAAEPDASEKPAEATAGSGGVNGGEEQGLGKREEDEPEERSGDETPGSEVPGDKAAEEQGDDQDSEKSKPAGSDGERRGVKRQRDEKDEHGRAYYEFREEAYHSRSKSPLPPEEEAKDEEEDQTLVNLDTYTSDLHFQVSKDRYGGQPLFSEKFPTLWSGARSTYGVTKGKVCFEAKVTQNLPMKEGCTEVSLLRVGWSVDFSRPQLGEDEFSYGFDGRGLKAENGQFEEFGQTFGENDVIGCFANFETEEVELSFSKNGEDLGVAFWISKDSLADRALLPHVLCKNCVVELNFGQKEEPFFPPPEEFVFIHAVPVEERVRTAVPPKTIEECEVILMVGLPGSGKTQWALKYAKENPEKRYNVLGAETVLNQMRMKGLEEPEMDPKSRDLLVQQASQCLSKLVQIASRTKRNFILDQCNVYNSGQRRKLLLFKTFSRKVVVVVPNEEDWKKRLELRKEVEGDDVPESIMLEMKANFSLPEKCDYMDEVTYGELEKEEAQPIVTKYKEEARKLLPPSEKRTNRRNNRNKRNRQNRSRGQGYVGGQRRGYDNRAYGQQYWGQPGNRGGYRNFYDRYRGDYDRFYGRDYEYNRYRDYYRQYNRDWQSYYYHHPQDRDRYYRNYYGYQGYR
As for B1, the “target (unweighted spectral count of the protein in the RNP capture)” value in assay [1] is reported as 6. In addition, in assay [2], the “target (spectral count)” value is given as 24; the “background (spectral count)” value was 3; the “target (spectral count, OC43 Probe I RNP capture)” value is listed as 33; the “background (spectral count, no-probe control)” value is reported as 2. In addition, the “target (unweighted spectral count, OC43 Probe II capture)” value in assay [3] (36 hpi, type n_36_v) was found to be 14. Besides, the “target (unweighted spectral count)” value in assay [3] (12 hpi (type n_12_v)) worked out at 6. Moreover, the “target (unweighted spectral count)” value in assay [3] (24 hpi (type n_24_v)) was 11. Besides, in assay [3], the “target (unweighted spectral count, OC43 Probe II)” value is recorded as 25 and the “background (unweighted spectral count, no-probe control)” value is 2. The “target (spectral count)” value in assay [3] (type s_36_m, HCoV-OC43-infected HCT-8 cells, 36 hpi, Probe II) worked out at 14. Further, the “background (spectral count)” value in assay [3] (type s_36_m, uninfected-probe control, 36 hpi, Probe II) was 1. In addition, in assay [4], the “target (unweighted spectral count of the protein in the RNP capture experiment)” value is listed as 5 and the “back-ground (unweighted spectral count of the protein in the control experiment)” value (shortened to “back-ground”) is on record as 1.

B2: RTCB (protein, UniProt Q9Y3I0 1-505, looked up)
RNA-splicing ligase RtcB …: MSRSYNDELQFLEKINKNCWRIKKGFVPNMQVEGVFYVNDALEKLMFEELRNACRGGGVGGFLPAMKQIGNVAALPGIVHRSIGLPDVHSGYGFAIGNMAAFDMNDPEAVVSPGGVGFDINCGVRLLRTNLDESDVQPVKEQLAQAMFDHIPVGVGSKGVIPMNAKDLEEALEMGVDWSLREGYAWAEDKEHCEEYGRMLQADPNKVSARAKKRGLPQLGTLGAGNHYAEIQVVDEIFNEYAAKKMGIDHKGQVCVMIHSGSRGLGHQVATDALVAMEKAMKRDKIIVNDRQLACARIASPEGQDYLKGMAAAGNYAWVNRSSMTFLTRQAFAKVFNTTPDDLDLHVIYDVSHNIAKVEQHVVDGKERTLLVHRKGSTRAFPPHHPLIAVDYQLTGQPVLIGGTMGTCSYVLTGTEQGMTETFGTTCHGAGRALSRAKSRRNLDFQDVLDKLADMGIAIRVASPKLVMEEAPESYKNVTDVVNTCHDAGISKKAIKLRPIAVIKG
For the molecule B2, in assay [1], the “target (unweighted spectral count of the protein in the RNP capture)” value stood at 6. In addition, in assay [2], the “target (spectral count, OC43 Probe I RNP capture)” value stood at 7 and the “background (spectral count, no-probe control)” value stood at 1. Moreover, the “target (unweighted spectral count, OC43 Probe II capture)” value in assay [3] (24 hpi, type n_24_v) is listed as 4. Moreover, the “target (unweighted spectral count, OC43 Probe II capture)” value in assay [3] (36 hpi, type n_36_v) came to 6. Also, in assay [3], the “target (unweighted spectral count, OC43 Probe II)” value is 7 and the “background (unweighted spectral count, no-probe control)” value is given as 1. Also, in assay [4], the “target (unweighted spectral count in RNP capture)” value turned out to be 14 and the “background (unweighted spectral count in control)” value stood at 1.

B3: THRAP3: host protein, UniProt Q9Y2W1 (protein, UniProt Q9Y2W1 2-955, looked up)
Thyroid hormone …: SKTNKSKSGSRSSRSRSASRSRSRSFSKSRSRSRSLSRSRKRRLSSRSRSRSYSPAHNRERNHPRVYQNRDFRGHNRGYRRPYYFRGRNRGFYPWGQYNRGGYGNYRSNWQNYRQAYSPRRGRSRSRSPKRRSPSPRSRSHSRNSDKSSSDRSRRSSSSRSSSNHSRVESSKRKSAKEKKSSSKDSRPSQAAGDNQGDEAKEQTFSGGTSQDTKASESSKPWPDATYGTGSASRASAVSELSPRERSPALKSPLQSVVVRRRSPRPSPVPKPSPPLSSTSQMGSTLPSGAGYQSGTHQGQFDHGSGSLSPSKKSPVGKSPPSTGSTYGSSQKEESAASGGAAYTKRYLEEQKTENGKDKEQKQTNTDKEKIKEKGSFSDTGLGDGKMKSDSFAPKTDSEKPFRGSQSPKRYKLRDDFEKKMADFHKEEMDDQDKDKAKGRKESEFDDEPKFMSKVIGANKNQEEEKSGKWEGLVYAPPGKEKQRKTEELEEESFPERSKKEDRGKRSEGGHRGFVPEKNFRVTAYKAVQEKSSSPPPRKTSESRDKLGAKGDFPTGKSSFSITREAQVNVRMDSFDEDLARPSGLLAQERKLCRDLVHSNKKEQEFRSIFQHIQSAQSQRSPSELFAQHIVTIVHHVKEHHFGSSGMTLHERFTKYLKRGTEQEAAKNKKSPEIHRRIDISPSTFRKHGLAHDEMKSPREPGYKAEGKYKDDPVDLRLDIERRKKHKERDLKRGKSRESVDSRDSSHSRERSAEKTEKTHKGSKKQKKHRRARDRSRSSSSSSQSSHSYKAEEYTEETEEREESTTGFDKSRLGTKDFVGPSERGGGRARGTFQFRARGRGWGRGNYSGNNNNNSNNDFQKRNREEEWDPEYTPKSKKYYLHDDREGEGSDKWVSRGRGRGAFPRGRGRFMFRKSSTSPKWAHDKFSGEEGEIEDDESGTENREEKDNIQPTTE
For the molecule B3, the “target (unweighted spectral count of the protein in the RNP capture)” value in assay [1] is listed as 7. For the same molecule, in assay [2], the “target (spectral count)” value came to 8; the “background (spectral count)” value is on record as 1; the “target (spectral count, OC43 Probe I RNP capture)” value is on record as 10; the “background (spectral count, no-probe control)” value is 2. Moreover, the “target (unweighted spectral count, OC43 Probe II capture)” value in assay [3] (36 hpi, type n_36_v) is reported as 12. In assay [3], the “target (unweighted spectral count, OC43 Probe II)” value was found to be 13 and the “background (unweighted spectral count, no-probe control)” value is listed as 2. Further, in assay [4], the “target (unweighted spectral count of the protein in the RNP capture experiment)” value was 6 and the “back-ground” value is recorded as 1.

B4: U2AF2 (protein, UniProt P26368 2-475, looked up)
Splicing factor U2AF 65 kDa …: SDFDEFERQLNENKQERDKENRHRKRSHSRSRSRDRKRRSRSRDRRNRDQRSASRDRRRRSKPLTRGAKEEHGGLIRSPRHEKKKKVRKYWDVPPPGFEHITPMQYKAMQAAGQIPATALLPTMTPDGLAVTPTPVPVVGSQMTRQARRLYVGNIPFGITEEAMMDFFNAQMRLGGLTQAPGNPVLAVQINQDKNFAFLEFRSVDETTQAMAFDGIIFQGQSLKIRRPHDYQPLPGMSENPSVYVPGVVSTVVPDSAHKLFIGGLPNYLNDDQVKELLTSFGPLKAFNLVKDSATGLSKGYAFCEYVDINVTDQAIAGLNGMQLGDKKLLVQRASVGAKNATLVSPPSTINQTPVTLQVPGLMSSQVQMGGHPTEVLCLMNMVLPEELLDDEEYEEIVEDVRDECSKYGLVKSIEIPRPVDGVEVPGCGKIFVEFTSVFDCQKAMQGLTGRKFANRVVVTKYCDPDSYHRRDFW
Take B4: the “target (unweighted spectral count of the protein in the RNP capture)” value in assay [1] is recorded as 7. In assay [2], the “target (spectral count, OC43 Probe I RNP capture)” value is recorded as 8 and the “background (spectral count, no-probe control)” value was 1. Besides, the “target (unweighted spectral count, OC43 Probe II capture)” value in assay [3] (36 hpi, type n_36_v) turned out to be 6. Moreover, in assay [3] (12 hpi (type n_12_v)), the “target (unweighted spectral count)” value came out at 5. In addition, in assay [3], the “target (unweighted spectral count, OC43 Probe II)” value was found to be 12 and the “background (unweighted spectral count, no-probe control)” value was determined as 1. Also, in assay [4], the “target (unweighted spectral count of the protein in the RNP capture experiment)” value worked out at 6 and the “back-ground” value amounted to 1.

B5: HNRNPM (protein, UniProt P52272 2-730, looked up)
Heterogeneous nuclear …: AAGVEAAAEVAATEIKMEEESGAPGVPSGNGAPGPKGEGERPAQNEKRKEKNIKRGGNRFEPYANPTKRYRAFITNIPFDVKWQSLKDLVKEKVGEVTYVELLMDAEGKSRGCAVVEFKMEESMKKAAEVLNKHSLSGRPLKVKEDPDGEHARRAMQKVMATTGGMGMGPGGPGMITIPPSILNNPNIPNEIIHALQAGRLGSTVFVANLDYKVGWKKLKEVFSMAGVVVRADILEDKDGKSRGIGTVTFEQSIEAVQAISMFNGQLLFDRPMHVKMDERALPKGDFFPPERPQQLPHGLGGIGMGLGPGGQPIDANHLNKGIGMGNIGPAGMGMEGIGFGINKMGGMEGPFGGGMENMGRFGSGMNMGRINEILSNALKRGEIIAKQGGGGGGGSVPGIERMGPGIDRLGGAGMERMGAGLGHGMDRVGSEIERMGLVMDRMGSVERMGSGIERMGPLGLDHMASSIERMGQTMERIGSGVERMGAGMGFGLERMAAPIDRVGQTIERMGSGVERMGPAIERMGLSMERMVPAGMGAGLERMGPVMDRMATGLERMGANNLERMGLERMGANSLERMGLERMGANSLERMGPAMGPALGAGIERMGLAMGGGGGASFDRAIEMERGNFGGSFAGSFGGAGGHAPGVARKACQIFVRNLPFDFTWKMLKDKFNECGHVLYADIKMENGKSKGCGVVKFESPEVAERACRMMNGMKLSGREIDVRIDRNA
As for B5, the “target (unweighted spectral count of the protein in the RNP capture)” value in assay [1] came to 71. Besides, in assay [2], the “target (spectral count, OC43 Probe I RNP capture)” value is 65 and the “background (spectral count, no-probe control)” value is listed as 7. In assay [3] (36 hpi, type n_36_v), the “target (unweighted spectral count, OC43 Probe II capture)” value came out at 73. In addition, the “target (unweighted spectral count)” value in assay [3] (12 hpi (type n_12_v)) is listed as 22. Also, in assay [3] (24 hpi (type n_24_v)), the “target (unweighted spectral count)” value is reported as 34. For the same molecule, in assay [4], the “target (unweighted spectral count in RNP capture)” value was 53 and the “background (unweighted spectral count in control)” value is listed as 1.
